How the values were obtained:
[1] = target: Cse4/H4 (S. cerevisiae, UniProt P36012 1-229; P02309 1-103); assay: reconstitution of the complex from the separate proteins
[2] = target: Cse4 (recombinant) (S. cerevisiae, UniProt P36012 1-229); assay: as above
Sequence of Cse4 (recombinant) (P36012 whole entry): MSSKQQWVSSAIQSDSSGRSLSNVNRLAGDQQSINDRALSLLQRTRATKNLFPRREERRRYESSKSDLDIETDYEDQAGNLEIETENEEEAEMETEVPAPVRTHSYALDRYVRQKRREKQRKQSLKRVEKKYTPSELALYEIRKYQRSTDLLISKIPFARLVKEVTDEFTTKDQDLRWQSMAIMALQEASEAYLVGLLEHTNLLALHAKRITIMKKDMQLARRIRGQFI

Sequence of Cse4/H4 (P36012 whole entry, one chain of several): as the sequence (P36012 whole entry) above

B1: His6-Scm3-Δ25N (recombinant) (domain or fragment, S. cerevisiae, UniProt Q12334 26-223, looked up)
chain: ESGKKSESKIRKHSDCNPVHRVYPPNIEKRKTKKDDGISRPIAERNGHVYIMSKENHIIPKLTDDEVMERHKLADENMRKVWSNIISKYESIEEQGDLVDLKTGEIVEDNGHIKTLTANNSTKDKRTKYTSVLRDIIDISDEEDGDKNDEYTLWANDSEASDSEVDADNDTEEEKDEKLIDADFKKYEAKLSKRILRD
Does B1 bind [1]?
Result: binds

Does B1 bind [2]?
Result: binds
